This data set deals with the molecule itself. The experiment in a line: cross-linking; chemical cross-linking in TrkA-transfected PC12 cells, with or without LPC; data not shown.

B1: tropomyosin-related kinase A (TrkA) (receptor)
chain: not shown
On to B1, for which the “stoichiometry N” value was 2.

By stoichiometry N is commonly meant the number of molecules, sites or subunits per partner or assembly.

(Values after paper PMC3678299 (FEBS Open Bio, 2013).)
